The values that follow come from US20230167458A1, “FORSKOLIN-INDUCIBLE PROMOTERS AND HYPOXIA-INDUCIBLE PROMOTERS” (ASKLEPIOS BIOPHARMACEUTICAL, INC., priority 2020, published 2023).

One data set has as its system HEK293-T. The experiment in a line: Luciferase expression in normoxia vs 24 h hypoxia, transiently transfected HEK293-T. The class given is cell-based, human. The conditions noted are these: for relative rank of promoter strength: 24 h hypoxia vs 24 h normoxia. As for the experimental part:
HEK293-T are seeded at a density of 20%. Once they reached a confluence between 60 and 80%, the media is changed with DMEM (#21885-025—Thermo Scientific) supplemented with 10% FBS (Gibco, 26140). After 3 hours, the cells were transfected by a transfection mix. The transfection mix is prepared by adding DNA ([…] per 6 well plate) and PEI 25 kDA (#23966-1—Polyscience) in a ratio of 1:3 in sterile DPBS (#14190169—ThermoFisher Scientific). After mixing, the transfection mix is incubated at room temperature for 30 minutes and then added directly to the cells. After 16 to 18 h post transfection, the media is changed to DMEM+2% FBS. The transfected DNA was one of the vectors where the promoter constructs (RTV-015, HYBT, RTV-016, HV3C) or a control promoter (CMV-IE) were used to drive luciferase expression and β-galactosidase containing pcDNA6 plasmid. The β-galactosidase containing plasmid was used as internal control for transfection efficiency (Thermofisher, V22020).
After transfection the cells were incubated for 24 hrs in normoxic conditions (20% oxygen). Induction of the promoters was assessed by using luciferase activity after 24 hrs in normoxia or hypoxia (5% oxygen, 10% carbon dioxide and 85% nitrogen). Hypoxia was achieved by gas displacement in a sealed hypoxia chamber.
Luciferase activity was measured using LARII (Dual Luciferase Reporter 1000 assay system, Promega, E1980).
Media was removed from the cells at the respective time point (0, 3, 5, 24 hrs after induction). The cells were washed once in 300 μl of DPBS. Cells were lysed by adding 100 μl of passive lysis buffer to the cells and incubation with rocking for 15 minutes. The cell debris was pelleted by centrifugation of the plate at max speed in a benchtop centrifuge for 1 min. 10 μl of supernatant was pipetted into white 96-well plate and luminescence measured by addition of 50 μl of LARII substrate.
β-galactosidase activity was measured as per manufacturer's instructions (Mammalian βGalactosidase Assay Kit, 75707/75710, Thermo Scientific) using 25 μl of lysate. 25 μl of lysate was transferred into a microplate well and mixed with 25 μl of β-galactosidase Assay Reagent, equilibrated to room temperature. The mixture was incubated at 37° C. for 30 min and absorbance measured at 405 nm.
Luciferase readouts were normalised to β-galactosidase to produce normalised relative luminometer units (RLUs).

In another data set the test system is CHO-GSK1SV cell line. The experiment in a line: SEAP expression and cell number in normoxia vs 24 h hypoxia, stably transfected CHO-GS-KSV1. The note with it: stably integrated CHO-GSK1SV. Type of data set: cell-based, chinese hamster. As for the experimental part: Cell suspensions of 6×10^5 cells per mL are incubated on an orbital shaker set at 8% CO2, 20% O2, 37° C., 85% relative humidity and 140 rpm overnight. 2.86×10^7 cells were centrifuged at 200 g for 3 minutes. Media is then aspirated and cell pellet resuspended in 2 mL fresh CD-CHO media to obtain a concentration of 1.43×10^7 cells per mL. 700 μL of cell suspension was added to each of two electroporation cuvettes each containing […] of linearised DNA in 100 μL of sterile TE buffer (Thermofisher, 12090015). Each cuvette was electroporated, delivering a single pulse of 300V, […] with resistance to infinity. Immediately after delivery of pulse electroplated cells were transferred to Erlenmeyer 125 mL flask containing 20 mL of CD-CHO media pre-warmed to 37° C. Electroporated cells from two cuvettes are combined into a single 125 mL flask to generate one pool of cells. Cells are cultured on an orbital shaker set at 8% CO2, 20% 02, 37° C., 85% relative humidity and 140 rpm. Cells are transferred to fresh CD-CHO media 24 hours after transfection and cell cultures monitored and given fresh CD-CHO media every 2-4 days. Usually after about 10-14 days cell numbers will be high enough to start passaging. Cells were selected at 14 days and then expanded. Induction was performed once doubling time had returned to approx. 24 hrs. The cells assayed in this example were at passage number 15, 17, 19 and 21.
The transfected DNA was pXC-17.4 expression vector (Lonza Biologics plc) where one of the promoter constructs (RTV-015, HYBT, RTV-016, HV3C) or a control promoter (CMV-IE) have been cloned upstream of the SEAP gene, which had been cloned into the multiple cloning site within the vector expression cassette. Promoters were closed into the pXC-17.4 vector using Gibson assembly. The pXC-17.4 expression vector is designed for making stable cell lines in the CHO-GSK1SV cell line as it contains the […] gene which has been knocked out of the cell line. Therefore, selection of cells in glutamine drop-out medium will select for cells that have stably integrated the plasmid.
Stably transfected CHO-GS cells were seeded at 500,000 cells/ml and allowed to grow for 24 hrs, at this point the cells were counted and placed under hypoxic conditions as previously described. After 24 hrs, the cell numbers and the expression of SEAP was measured.
SEAP Reporter Gene Assay, chemiluminescent (Roche, CAT #11 779 842 001) was used to measured SEAP activity as per manufacturers protocol. All reagents and samples were fully pre-equilibrated at room temperature. Culture supernatant was collected from the stably transfected CHO-GS at the specific time points (0 h and 24 h). The supernatant was diluted 1:4 in dilution buffer and heat treated at 65° C. for 30 minutes. The heat-treated sample was then centrifuged for 30 s at maximum speed. 50 μl of the heat-treated sample was then added to 5 μl of inactivation buffer and incubated for 5 min at room temperature. 50 μl of substrate reagent was then added and incubated for 10 min at room temperature. The signal is then read at 477 nm and compared to a calibration curve. SEAP expression was normalized against cell number to ensure that the increase in activity was not due to increased cell numbers and was true induction. The result of this experiment can be seen in FIG. 16 and FIG. 17.

B1: HV3C: synthetic hypoxia-inducible promoter, SEQ ID NO: 85/87; 4 HRE3 elements and CMV minimal promoter (nucleic acid)
DNA: GATCTTTGTATTTAATTAAGACCTTGAGTACGTGCGTCTCTGCACGTATGGCGATTAAGACCTTGAGTACGTGCGTCTCTGCACGTATGGCGATTAAGACCTTGAGTACGTGCGTCTCTGCACGTATGGCGATTAAGACCTTGAGTACGTGCGTCTCTGCACGTATGGCGATTAATCCATATGCAGGTCTATATAAGCAGAGCTCGTTTAGTGAACCGTCAGATCGCCTAGATACGCCATCCACGCTGTTTTGACCTCCATAGAAGATCGCCACC
modifications: Synp-HV3C
notes: 4 HRE3 elements and CMV minimal promoter
With B1, in the data set with HEK293-T, the “inducibility after 24 hours in hypoxia (rank)” value (“inducibility after 24 hours” below) is “highest”, the “luciferase activity in normoxia” value is “almost no luciferase activity” and the “relative rank of promoter strength” value is given as “strongest”. For the same molecule, in the data set on CHO-GSK1SV cell line, the “SEAP activity in normoxia” value is “almost no SEAP activity” and the “inducibility after 24 hours” value was “highest”.

B2: RTV-015: synthetic hypoxia-inducible promoter, SEQ ID NO: 81; 5 HRE1 elements spaced by 40 bp and minimal promoter MP1 (nucleic acid)
DNA: ACGTGCGATGATGCGTAGCTAGTAGTGATGATGCGTAGCTAGTAGTACGTGCGATGATGCGTAGCTAGTAGTGATGATGCGTAGCTAGTAGTACGTGCGATGATGCGTAGCTAGTAGTGATGATGCGTAGCTAGTAGTACGTGCGATGATGCGTAGCTAGTAGTGATGATGCGTAGCTAGTAGTACGTGCTTGGTACCATCCGGGCCGGCCGCTTAAGCGACGCCTATAAAAAATAGGTTGCATGCTAGGCCTAGCGCTGCCAGTCCATCTTCGCTAGCCTGTGCTGCGTCAGTCCAGCGCTGCGCTGCGTAACGGCCGCC
modifications: Synp-RTV-015
notes: 5 HRE1 elements spaced by 40 bp and minimal promoter MP1
On to B2, for which, in the data set on HEK293-T, the “inducibility after 24 hours” value is given as “lowest”, the “luciferase activity in normoxia” value is “almost no luciferase activity” and the “relative rank of promoter strength” value is listed as “weakest”. Besides, in the data set on CHO-GSK1SV cell line, the “SEAP activity in normoxia” value is given as “almost no SEAP activity” and the “inducibility after 24 hours” value is listed as “lowest”.
